Patent publication US20200308591A1, “PROMOTER REGION ANALYSIS METHODS AND CELLS FOR PRACTICING SAME” (Eurofins DiscoverX Corporation, priority 2019, published 2020)
Like-named read-outs stand apart in the source and are kept apart here. Blank lines part the entries; values can stand above or below the molecule they belong to.

How the values were obtained:
[1] = tested on: IL2 promoter; assay: Jurkat IL2-promoter EFC reporter assay; format: cell-based; conditions: 5K cells, stimulated 16h; ionomycin via NFAT, PMA via AP-1 response elements
Description: FIG. 9. Plasmid map for IL2-Promoter-EFC Reporter Plasmid. In this reporter construct, the complete endogenous IL2 gene promoter (“IL2prom”), which contains multiple specific transcription factor binding sites is fused upstream of and drives expression of carrier protein-ePL which is fused to a carrier protein. Contained within the IL2 promoter are binding sites for NFAT (1), NFkB (2), OCT (3), ARRE-2 (4) and NFAT/API (6) transcription factors and the IL2 minimal promoter (7). The DNA sequence of the IL2 promoter used is gtac[…]gctag (SEQ ID NO: 11) and is comprised of 8 different transcription factor binding sites and an IL-2 core promoter as described by Weaver et. al. (Molecular Immunology, 6 Mar. 2007, 44(11):2813-2819). The following 8 DNA elements […] (SEQ ID NO: 12), […] (SEQ ID NO:13), […] (SEQ ID NO:14), […] (SEQ ID NO:15), […] (SEQ ID NO:16), […] […]
FIG. 10. […] 5K Jurkat IL2 promoter reporter cells were plated in wells of 384 well plate and stimulated for 16h with either […] (squares) or […]+CD28 antibody (circles) at 37′C prior to adding FLASH detection reagent (+5×EA) with cell lysis (and reading EFC luminescence). […]
FIG. 11. […] 5K cells were plated in wells of 384 well plate and stimulated for 16h prior to adding FLASH detection reagent (+5×EA) with cell lysis (and reading luminescence). S/B is calculated by taking the RLU (with PMA/ionomycin)/RLU (without PMA/ionomycin).

[2] = tested on: NFAT signaling pathways; assay: U2OS NFAT EFC reporter assay, PMA/ionomycin stimulation; format: cell-based; conditions: 5,000 cells, stimulated 20h, components given together as cocktail, read-out: potency of the cocktail expressed as component concentration
Method: NFAT EFC Reporter construct includes a promoter with 4 tandemly repeated (4×) NFAT transcription factor binding response elements, each having the sequence: […] (SEQ ID NO:5).
Cells were stimulated for 20h followed by detection by PathHunter® FLASH detection reagent (+Enzyme Acceptor (EA)) with cell lysis for 1h. 5K and 10K refers to the number of cells plated in each well of a 384 well plate. S/B is signal (top) over background (bottom) of the assay response curve.
A “cell stimulation” cocktail of phorbol 12-myristate 13-acetate (PMA) and ionomycin is known to activate “NFAT signaling pathways” and the NFAT transcription factor. […] Inhibition could be detected as decreases in relative light units (RLUs) with test compounds in the presence of stimulating doses of cell stimulation cocktail or other activating ligands.

[3] = molecular target: CD40 receptor, endogenous in U2OS NFκB EFC reporter cells (UniProt P25942); assay: cell-based or functional assay
CD40 receptor, endogenous in U2OS NFκB EFC reporter cells, sequence (P25942 21-277 limits assumed): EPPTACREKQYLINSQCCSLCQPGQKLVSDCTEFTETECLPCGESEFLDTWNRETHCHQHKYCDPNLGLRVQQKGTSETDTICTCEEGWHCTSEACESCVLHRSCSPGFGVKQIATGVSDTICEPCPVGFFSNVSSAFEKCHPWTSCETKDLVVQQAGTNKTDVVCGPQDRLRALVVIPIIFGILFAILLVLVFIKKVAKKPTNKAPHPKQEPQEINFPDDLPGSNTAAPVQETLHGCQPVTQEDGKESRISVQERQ

[4] = molecular target: TNFα (Homo sapiens, UniProt P01375); assay: U2OS NFkB EFC reporter assay, inhibition of TNFα-stimulated NF-κB signaling; format: cell-based
TNFα, sequence (P01375 77-233 limits assumed): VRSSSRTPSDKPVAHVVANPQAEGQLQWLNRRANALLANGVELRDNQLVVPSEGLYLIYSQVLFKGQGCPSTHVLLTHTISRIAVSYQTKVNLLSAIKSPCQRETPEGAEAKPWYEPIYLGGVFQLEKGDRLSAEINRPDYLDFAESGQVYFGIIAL
Method: FIG. 5. Screening of inhibitors using U2OS NFkB EFC reporter cell-based assay. U2OS NFkB EFC reporter cells were treated with 2 nM TNFα (agonist) with or without various concentrations (and 3 lots) of anti-TNFα inhibitor adalimumab. In this example, the 3 lots of Humira tested were all derived from lot #1047318 run through a forced degradation protocol to simulate decreased specific activity or loss of activity where samples were non-stressed (e.g. the control), stressed 70° C. for 15 min and stressed 70° C. for 30 min.
U2OS NF-κB EFC Reporter cells can also be used to measure inhibition and study inhibitors of NF-κB signaling. […] The dose-dependence of this inhibitory response allowed measurement of the potency of different lots of adalimumab. […] Note that forced degradation is a method used in development of assay for biologics (protein therapeutics) to simulate lots with different potency, e.g. for QC/lot release assays, or loss of potency from various causes. […] The stability of Humira® over time can also be studied using this assay. It can be seen that two lots of Humira® stored at 4° C.
FIG. 6. […] The stability of expired lot #1017235 was also equivalent to that of lot #1047318 in the forced degradation experiment shown in FIG. 5.

[5] = molecular target: T1, IL-6 receptor (Homo sapiens, UniProt P08887); assay: HepG2 STAT3 pathway reporter cell line (Example 9); format: cell-based; conditions: 5000 cells/well; 16 h at 37 °C
T1 construct: uses endogenous IL-6 receptor in HepG2 cells to detect IL-6 signaling; endogenous in cells; host or cells: HepG2
T1 sequence (P08887 20-468): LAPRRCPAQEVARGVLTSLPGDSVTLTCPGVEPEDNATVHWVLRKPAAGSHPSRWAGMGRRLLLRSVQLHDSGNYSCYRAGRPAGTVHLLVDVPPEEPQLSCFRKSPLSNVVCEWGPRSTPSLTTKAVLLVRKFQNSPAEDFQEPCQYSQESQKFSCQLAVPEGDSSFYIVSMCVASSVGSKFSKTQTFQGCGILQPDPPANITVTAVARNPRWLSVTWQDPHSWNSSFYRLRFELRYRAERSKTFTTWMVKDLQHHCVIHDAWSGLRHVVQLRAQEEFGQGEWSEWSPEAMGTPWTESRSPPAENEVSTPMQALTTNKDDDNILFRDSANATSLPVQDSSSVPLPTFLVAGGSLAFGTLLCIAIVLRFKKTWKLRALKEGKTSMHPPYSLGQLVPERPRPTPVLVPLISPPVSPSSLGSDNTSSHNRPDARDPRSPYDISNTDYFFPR
T1 sequence (P40189 23-918 partner): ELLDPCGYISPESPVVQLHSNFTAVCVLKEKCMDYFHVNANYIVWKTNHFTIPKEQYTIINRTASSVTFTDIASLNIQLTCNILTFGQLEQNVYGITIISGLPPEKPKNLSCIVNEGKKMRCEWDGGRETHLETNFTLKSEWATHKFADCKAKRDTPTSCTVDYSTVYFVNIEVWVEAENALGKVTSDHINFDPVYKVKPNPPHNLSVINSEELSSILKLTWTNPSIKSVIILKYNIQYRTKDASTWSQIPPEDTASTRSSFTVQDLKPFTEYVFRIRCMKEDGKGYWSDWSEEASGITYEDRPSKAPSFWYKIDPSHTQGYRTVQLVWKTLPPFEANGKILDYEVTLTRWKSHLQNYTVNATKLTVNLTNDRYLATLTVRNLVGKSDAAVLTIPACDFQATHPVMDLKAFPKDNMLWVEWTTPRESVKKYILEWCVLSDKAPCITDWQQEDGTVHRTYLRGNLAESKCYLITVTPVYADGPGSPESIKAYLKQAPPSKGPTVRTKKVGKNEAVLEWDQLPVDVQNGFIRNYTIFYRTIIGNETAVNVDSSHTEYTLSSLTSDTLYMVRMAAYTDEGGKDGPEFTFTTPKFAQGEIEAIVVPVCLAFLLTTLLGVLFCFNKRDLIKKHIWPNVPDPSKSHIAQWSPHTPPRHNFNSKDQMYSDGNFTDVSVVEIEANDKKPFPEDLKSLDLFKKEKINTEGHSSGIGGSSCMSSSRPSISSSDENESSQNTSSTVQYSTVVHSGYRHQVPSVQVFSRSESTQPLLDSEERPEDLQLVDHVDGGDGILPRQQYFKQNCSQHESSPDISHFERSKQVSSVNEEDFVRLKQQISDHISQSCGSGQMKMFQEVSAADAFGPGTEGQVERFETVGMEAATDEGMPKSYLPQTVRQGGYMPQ
Description: A reporter cell line was engineered to express an Enzyme Donor (ED) tagged carrier protein controlled by a pathway-inducible transcriptional response element. Pathway activation results in induced expressions of the ED-tagged protein. Addition of exogenous Enzyme Acceptor (EA), and buffer, lyses the cell and forces complementation of the ED and EA enzyme fragments.
In this example, the cell line is a STAT3 (signal transducer and activator of transcription 3) pathway reporter cell line. The cells are HepG2 cells that include a nucleic acid encoding a β-galactosidase donor fragment (ED) having the amino acid sequence […] (SEQ ID NO:30) operably coupled to a promoter region comprising a STAT3 response element.
Cells were plated in a 96-well plate and incubated at 37° C. and 5% CO2 to allow the cells to attach and grow. Cells were then stimulated with a control agonist (here, IL-6), using the assay conditions described below. Following stimulation, signal was detected using the PathHunter® ProLabel®/ProLink™ Detection Kit (Eurofins DiscoverX Corporation) according to the recommended protocol.
Cell line for HepG2 STAT3 assay uses endogenous IL-6 receptor in HepG2 cells to detect IL-6 signaling.

[6] = molecular target: endogenous IL-6 receptor in HepG2 cells (UniProt P08887); assay: cell-based or functional assay
[7] = molecular target: human T-cell receptor CD3 subunit on Jurkat cells (human) (UniProt P07766); assay: cell-based or functional assay

CD40 ligand (CD40L), sequence (P29965 113-261 limits assumed): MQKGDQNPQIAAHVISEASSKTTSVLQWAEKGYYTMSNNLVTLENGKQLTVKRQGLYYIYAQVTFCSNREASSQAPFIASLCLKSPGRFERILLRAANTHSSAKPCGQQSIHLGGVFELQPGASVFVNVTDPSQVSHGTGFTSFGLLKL
IL-6, sequence (P05231 30-212 limits assumed): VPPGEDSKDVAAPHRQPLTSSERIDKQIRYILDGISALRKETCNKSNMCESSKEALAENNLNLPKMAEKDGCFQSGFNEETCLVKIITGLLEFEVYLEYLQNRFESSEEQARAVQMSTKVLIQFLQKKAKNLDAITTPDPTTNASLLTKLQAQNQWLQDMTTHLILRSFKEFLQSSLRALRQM

inhibition of TNFα-stimulated NF-κB signaling ([4]; 2 nM TNFα (agonist)): can inhibit
change of inhibitory potency after forced degradation ([4]; samples subjected to forced degradation for 0, 15 or 30 min at 70° C.): graded loss of potency (right shift)
Molecule: adalimumab

EC50 for control agonist stimulation [5]: 0.000601 µg/mL
signal:background ratio at agonist EMAX [5]: 21.3
Molecule: IL-6: control agonist signalling through endogenous IL-6 receptor in HepG2 cells

EC50 of stimulating OKT3 cells, Jurkat NFAT EFC reporter co-culture assay [7]: 700 cells
Molecule: OKT3 ligand expressed and presented on the surface of CHO-K1 cells (scFv)

More lines, now with the values behind:

Molecule: CCCCCCCCCCCCCC(=O)O[C@@H]1[C@@H](C)[C@@]2(O)[C@@H](C=C(CO)C[C@]3(O)C(=O)C(C)=C[C@@H]23)[C@@H]2C(C)(C)[C@]12OC(C)=O [PMA, phorbol 12-myristate 13-acetate]
activation of elements in the IL2-promoter EFC reporter construct [1]: increase the activation
EC50 [2]: 3.8 nM

Molecule: CD40 ligand (CD40L) (from UniProt P29965 113-261)
EC50 for control agonist stimulation, U2OS NF-κB pathway reporter cell line (Example 12) [3]: 0.0886 µg/mL
EC50 for control agonist stimulation, U2OS NFκB pathway reporter cell line (Example 7) [3]: 0.225 µg/mL
signal:background ratio at agonist EMAX, U2OS NFκB pathway reporter cell line (Example 7) [3]: 26.3
signal:background ratio, U2OS NF-κB pathway reporter cell line (Example 12) [3]: 103

Molecule: C[C@H](CCC(=O)O)C[C@H](C)C[C@H](C)C(=O)/C=C(\O)[C@H](C)C[C@H](C)C/C=C/[C@@H](C)[C@@H](O)[C@@H](C)[C@@H](O)C[C@@H]1CC[C@@](C)([C@H]2CC[C@@](C)([C@@H](C)O)O2)O1 [ionomycin]
activation of elements in the IL2-promoter EFC reporter construct [1]: increase the activation
EC50 ([2]; Homo sapiens, U2OS): 63 nM

Molecule: IL-6 (from UniProt P05231 30-212) (ligand)
EC50 for control agonist stimulation, HepG2 STAT3 pathway reporter cell line [6]: 0.000601 µg/mL
signal:background ratio at agonist EMAX, HepG2 STAT3 pathway reporter cell line [6]: 21.3

Molecule: anti-CD3 antibody [OKT3]
EC50 for control agonist stimulation, Jurkat NFAT pathway reporter cell line (Example 8, plate-coated antibody) [7]: 0.302 µg/mL
signal:background ratio at agonist EMAX, Jurkat NFAT pathway reporter cell line (Example 8) [7]: 7.6
